experiment: soluble on expression in E. coli; label from the status in PepcDB or PDB records

Sequence	soluble on expression in E. coli
MAHHHHHHMNEDAMKILNKCSGEKKKGEDLNSCNLLEYYKTKYSSIDIEKAKLILKEQFLIPDFREKQLECLNSIKRFEHVLNIMPTGGGKSLIYQVLPLIIEGISIVISPLISLIQDQIISLRNKKIVAETINSSLNKKENERILDILKSQDLGNLKVLYITPETATSGYFIDILYELYINKKISLISIDEVHCISTWGSDFRKSYRNLNKILDICPYVRTYCCTATATKFVEKDIIRNLNFYIFNKDCDNNINNNNINNNNNIHNNNKYDDHNNNCKVLNIVRTSFNRPNLKYIIIYSDLIKDEKKNSVCDIINEKRNKGKIGIIYCFKRNTCDEISKYLREKGIQALSYHAGLTNNTRKRIQQKWISGKTNILVATIAFGMGIDRKDVSFIIHYNLPKSIENYYQESGRCGRSGHISFCYLFYSKEDVEKLSYIIKTSFAHLDMHDVNIEKKYEKEIYNLECVHNLCINEKCIRSQILSYFGETYPNKNLQTNNTSDHNKQTYKNQTHVEKYNFDTANMYHPSDQNKDNLTDEHFCCSFCYDTKGSRIKIQKVINLYENKKGSNISQFYSKGETHEYNYLYTNNGKHKLYDDDTYYSPSGEEPREKRSTNYYNKYGDKYGDKYDDKYDDKYDEKYDDKYGDRKLQEGIYKLNNKKIKGYIPFQSASSIIPKQIRDKGIIEVMKELEKREEELNEKTKNDQEKHKVNKMNLFKSNSMNVKRKHVFSSFKIPRKI	not soluble
MTESFADLFEQSLQTLEFRPGSIVRGTVVAIENGMVLVDAGLKSESPIPAEQFKNAQGVLEIAVGDEVDVALDSVEDGFGETQLSREKAKRHEAWIVLEKAYEDAETVIGIINGKVKGGFTVELNGIRAFLPGSLVDVRPVRDTAHLEYKELEFKVIKLDQKRNNVVVSRRAVIESESSAERDALLENLQEGQAVKGIVKNLTDYGAFVDLGGVDGLLHITDMAWKRVKHPSEIVNVGDEINVKVLKYDRERTRVSLGLKQLGEDPWLEISKRYPENTKLTGRVTNLTDYGCFVEIEEGVEGLVHVSEMDWTNKNIHPSKVVNLGDEVEVLVLDIDEERRRISLGLKQCKTNPWDDFATRYNKGDKVSGKIKSITDFGIFIGLDGGIDGLVHLSDISWNGTGEDAVSEYKKGDEIHAVVLSVDPERERISLGVKQTEDDPFNAYLADKKKGTIVHGTVSAVDAKGVTVELADTVEGYIRVADISRERIEDASTVYSVGDAIEAKFMGVDRKNRSISLSIKAKDEAEEKEVMATLNKQEDAVISNAMAEAFKAARKLEHHHHHH	soluble
MGSSHHHHHHGKTIFVIVPTNEEQVAFLEALAKQDELNFDWQNPPTEPGQPVVILIPSDMVEWFLEMLKAKGIPFTVYVEEGGSENLYFQGGGGGGLASGSSSAEGGAKRFSRQQIIQHVKKSLLYTAFDVRWVPQTASFAVVGQYPNNHGALSVYQLHHGDVQPTVEVRLPHPLKCCTFGHNISFSSSGSGSGGNSSSITAANATMNQIATGDFAGSLQIFDLSRLGSTPPSAPNALSDVTAASVLHIPHAHESIINAIDGARYSGPPEVATGSRDGSVKVWDTRQSNKPVVSLNPADPARARDCWTVRLGNSFDPDERVVAAGYDNGDVKIFDLRTQKMLHEMHVNNGVCDLEFDRPDIPMNKLLVSSLEGRVRCYDMRTLHPKLGYAYVEERVSEGTVWCSRALPQNREIFLSGGGGELTLCLYKYPPERTLKDGDGLQRGVAGAVEELNKAKIGDQPINAMDWNRSKEGLAVCASFDQSIRVMLVTKLGLLS	not soluble
MGSDKIHHHHHHMGKYQDSKKVVRNYFEALENATGDEVENVLKQHMKSDYNWKGVYPFREQEGTENVADVFWKPLKKSLSNMQRRQDIFIAGTNEIDNSEWVMSMGHFMGLFDNDWLGIKHTRKMISLRYAEFNCVQDGKIAKTGLFVDIIGFMIQAGVNPLPPQTGSYFVYPGPIDHNGLLFEDADEVEGVKTLALVNKMVDDLSELNESGAMGCPPEILEKSWAKDMIWYGPGGIGASYTIPRYQEQHQLPFRNNLKGKTFNGHVCRFAEGNFACFFGWPNLTNVPCGGFLGLPGGEVKADMQVVDVYYRKGDKLQENWVLIDIPYWLKQQGLDILERTKSIFNA	not soluble
MAHHHHHHMSQSTSLAYATLFHPSRDSATIQHSAARASAAHQQQVQQSPSITRATDGATYTAEGIAVASLSSLDTWTGFLSSQWAETVKMQLSMPSNAAPVISPSGADLISSLHSIVSRQNKVVAQPQEKLVAQRAKEEKDWEAKKQLSQSTSAEGMPGSFKNTKDEAVSSVDDNVADNAAENTQVCVLLAHLLEHARFLWARAVSQHFRVAQVRKSSSSKDTRSPKKVTADINAEAAMEEERVGLPPISLLFRCLVDGINSEEARQAIVTAGVLPASAWDSGVLGVDQLGILTVFERHVQALRTFPGIVPPLEALREYFAELHPQQLSKYYPSGALDSTLELAEAQMDAFLRFGDETEQMAALLRAGLHPSVRRLLYARALQVPLTVTDGKPMFLAQGELMTNHLRHGLARYLTCSSRQARDKVKRRFHHRYSSSKEENRVRLLQRLALDDMFISVGNSDKYFVYTDDVEVLSTAMVVDHSLPVPKMVQALKQLGRPRDLLDSYVTYLQYPETNLVQQKALPCGVAPLEGFALLLGALCNVTSDTVEQYELAAAIVAQLWSRLQGPTPELFQCCLIFESLVQQLALPAVLHATRNLQYPPLVLAMRWMLTGFADLLDAFEVLSFWDLVLSYHMREMHRRSPLSLPTGLANAAPHDTSTPCALWLLPMYAAAIFVMRAPLVEACRTAAEVDVVFATGHQLRTRSLLQGLLFG	not soluble
MGSDKIHHHHHHMSTDNDTETDDSGGHCSTPDSDGEVAEDIAIVAFERKRDTAAEIVAGIGDRYDSIDILDYHGDVFAEHWGEYDCFVGLMASGIAMRKTAGLLDDKWEDPAVVVVDEALTWAIPLTGGHHGANQVADDLASMGAVPAMTTASEAAGKQGVEERAKALDTHVVNGDSTVATNLAVLDENLGPVARLDGPQAVVVGDDVTVLKRNSDDGVVLGTGSVSGADEQQFRDAWAASLAATDYDIDDVEFVATGTRKADEEGLLAAAEALGLGVVAFEKETLEAHEGPTPSRSKELIGWPGIAEASAIAGGRDNELLAEKERYDEAVTVAVGK	not soluble
MGHHHHHHSHMDNAEAQFTTALRLTNHQELWAFIVTNLASVYIREGNRHQEVLYSLLERINPDHSFPVSSHCLRAAAFYVRGLFSFFQGRYNEAKRFLRETLKMSNAEDLNRLTACSLVLLGHIFYVLGNHRESNNMVVPAMQLASKIPDMSVQLWSSALLRDLNKACGNAMDAHEAAQMHQNFSQQLLQDHIEACSLPEHNLITWTDGPPPVQFQAQNGPNTSLASLL	not soluble
MSEKTFLVEIGTEELPPKALRSLAESFAANFTAELDNAGLAHGTVQWFAAPRRLALKVANLAEAQPDREIEKRGPAIAQAFDAEGKPSKAAEGWARGCGITVDQAERLTTDKGEWLLYRAHVKGESTEALLPNMVATSLAKLPIPKLMRWGASDVHFVRPVHTVTLLLGDKVIPATILGIQSDRVIRGHRFMGEPEFTIDNADQYPEILRERGKVIADYEERKAKIKADAEEAARKIGGNADLSESLLEEVASLVEWPVVLTAKFEEKFLAVPAEALVYTMKGDQKYFPVYANDGKLLPNFIFVANIESKDPQQIISGNEKVVRPRLADAEFFFNTDRKKRLEDNLPRLQTVLFQQQLGTLRDKTDRIQALAGWIAEQIGADVNHATRAGLLSKCDLMTNMVFEFTDTQGVMGMHYARHDGEAEDVAVALNEQYQPRFAGDDLPSNPVACALAIADKMDTLAGIFGIGQHPKGDKDPFALRRAALGVLRIIVEKNLNLDLQTLTEEAVRLYGDKLTNANVVDDVIDFMLGRFRAWYQDEGYTVDTIQAVLARRPTRPADFDARMKAVSHFRTLEAAAALAAANKRVSNILAKSDEVLSDRVNASTLKEPEEIKLAMQVVVLRDKLEPYFAEGRYQDALVELAELREPVDAFFDKVMVMVDDKELRLNRLTMLEKLRELFLRVADISLLQ	not soluble
MARTAAALHILVKHKEQADDILAQLKKGAKFHVLAKKYSTCPSGKKGGDLGEFRQGQMVPAFDKACFQGEVLTPQLVKTKFGWHVVKVLYRT	not soluble
MRPEERRRHILELLRQRERISVDELARTLSTSQETIRRDLAALAEQGLVSKFHGGAALPPSGEHENAFQTRMNEHAQEKRAVARYAAGLFGPGDSIFIDTGTTTLLFARELARQSHLTVITNSLLIAGSVGASGNRAFMIGGEYRPESEQNVGALAIEQIARFNAEHAVITVGALNGDGAMDFSIEEAEIARAMIAQARQLTVIADSSKLGRRALFQVFPLSRINRLVVDRKPTGELWEALQQARVEVHEAPLRTPQALEHHHHHH	not soluble
MGSDKIHHHHHHMRYTYRHIGILTISLIVASCSFSQKQADNNHDKDMNPNVKIVVLDPGHFHASLLQKNPLASVNDTIRVYAPEGAEVKQYLNDINSYNQRAENPTSWKEEIYIGGDYLSRMLSDRQGDVVVLAGNNQKKTNYILEAIKAGYNVLSDKPLAINKKDFDLLIQAYQLAKERKLLLYDLMTERYDILNIIEKALLNNPDLFGELQKGSLNDPSVSMESVHHFFKNVSGKPLIRPVWYYDTEQQGEGIADVTTHLIDLVNWQCFPNETIRYQSDVEVLKARHWPTRITLPEFSQSTQADTFPAFLNKYINNNVLEVLANGSLNYTVKGIHIGMKVIWNYTPPSDGGDTFTSLKKGSKATLKTIQDKESGFVKQLYIQRAADSDHSEFESQLQKAIKQLQATYPFLSVKKMNEGLYLIDIPQADRLGHEAHFSKVAEAFLGYLHDKNMPEWENENTISKYYITTTAVELAKKEK	not soluble
MQELKVPSVGESIVEVEIGAWLKGEGESFAQDEPLVELITDKATLELPAPFAGTLKQILKRTGETARVGEAIALLEEGRAEAAPKAQAPAEAPKEPSPEPLAMPAAERLMQEKGVSPAEVQGTGLGGRILKEDVMRHLEERAPAKPQEAPPPPPPSRPAPPPSTPPQPPADKPWRVSEAVPMTPLRRRIAERLLMVRQTTAMLTTFNEADMSAVIALRKEFGEAFQKKYGVKLGFMSFFVKAVVQALKEIPELNAEIRDNHIVYHRYYDIGIAVGGGEGLVVPVIRDADRLSFAEIEQKIADFAERARTKKLKPEELMGGTFTITNGGIYGSLNSTPLLNPPQVGILGMHAIQERPVVRDGQVVIRPMMYLALSYDHRIVDGREAVTFLRRVKELIENPARLLLEV	soluble
MNNPKAISKQTLLRLPSYLSYLKSLPKQDGEYVSATMIASALGLNDVQVRKDLACVSKKGRPKLGYVAEELIRDIESFLGYDSLNDAIIVGAGRLGGALLSYEGFKEYGLNIVAAFDIDESKIGTEICGRKIFPLDKMKELCRRMKIRIGIITVPADSAQKVCDMLVDSGIYAIWNFAPVHLKVPDNILVQQENMAASLAVLSAHLAEAIKNNGIGKGDEENDENSE	not soluble
MNQYPDFDQKLYDDLRRGKEYAFAAVFDRYHRLLYTIAYRFLKSEEEAEDAVQYLFMKLWEQRETFSFESGIRSLLFTILKNYILNELRHRNLVFEKLYEMAQQVNDEDEDAFLTRFEHGELRKSLRVAIDKLPPQKQKICLLKIEYGLSNQEIADRMGITVPTVKSHYTQAIKALRNAIESLIMWFPVIWIYLID	not soluble
MSLTDRLRATYRVKATAASIEARAKGIAVEQSVEMPLSAIDDPAVLDGIVGVVEEITERGEDCFEVRLALSTATIGGDAGQLFNMLFGNTSLQDDTVLLDIDLPDDLLASFGGPNIGAAGLRARVGASADRALTCSALKPQGLPPDRLADLARRMALGGLDFIKDDHGMADQAYAPFASRVGAVAAAVDEVNRQTGGQTRYLPSLSGHLDQLRSQVRTGLDHGIDTFLIAPMIVGPSTFHAVVREFPGAAFFAHPTLAGPSRIAPPAHFGKLFRLLGADAVIFPNSGGRFGYSRDTCQAVAEAALGPWGGLHASLPVPAGGMSLARVPEMIATYGPDVIVLIGGNLLEARDRLTEETAAFVASVAGAASRGCGLAEGHHHHHH	soluble

Reference: the DeepSol protein solubility set
